Test results taken from paper PMC6791878, “Evaluation of integrin αvβ6 cystine knot PET tracers to detect cancer and idiopathic pulmonary fibrosis” (Nature Communications, 2019).
Where two headings read alike, the source gives them in different places.

Experiments:
[1] = in vivo; settings: female, athymic nude (Nu/Nu), mouse, iv, total radioactivity; for tissue uptake at 2 h: microPET 2 hr; for tissue uptake at 4 h: microPET 4 hr; for tissue uptake at 24 h: microPET 24 hr
Protocol: (§1) Female athymic nude mice, 4–6 weeks old (Charles River), were subcutaneously shoulder-injected with 10^7 cells suspended in 100 µL PBS. Mice were used for imaging and biodistribution studies when xenografted tumors grew to a diameter of ~1 cm.
(§2) Tumor-bearing Nu/Nu female mice (n = 3 for each probe) were anesthetized using 2% isoflurane in oxygen and injected with ~100 µCi (~0.15 nmol) of the tracers described above via the tail vein. Five-minute static PET scans were acquired on an Inveon PET-CT or Inveon D-PET scanner (Siemens Healthcare, Malvern PA). Images were reconstructed by a two-dimensional ordered expectation maximum subset algorithm and calibrated as described below. ROIs were drawn over the tumor on decay-corrected whole-body images using Inveon Research Workplace (IRW) software (Siemens) or ASIPro VM software (Siemens). ROIs were converted to counts g^−1 min^−1, and %ID g^−1 values were determined assuming a tissue density of 1 g ml^−1.
(§3) Scanner activity calibration was performed to map between PET image units and units of radioactivity concentration. A preweighed 50-mL centrifuge tube was filled with distilled water and ^64CuCl2 (∼9.3 MBq [∼250 μCi] as determined by the dose calibrator) was used to simulate the whole body of the mouse. This tube was weighed, centered in the scanner aperture, and imaged for a 30-min static image, single bed position. From the sample weight and assuming a density of 1 g ml^−1, the activity concentration in the bottle was calculated in units of μCi mL^−1. Eight planes were acquired in the coronal section. A rectangular region of interest (ROI) (counts/pixel/s) was drawn on the middle of eight coronal planes.

[2] = system: αvβ6 expressing BxPC3 pancreatic cancer xenografts
Protocol: as §1, §2, §3

[3] = tumor (BxPC3 xenograft), Tumor avb6(+), individual mice
[4] = microPET 2 hr, individual mice, listed as R01 DOTA Cu-64
[5] = microPET 4 hr, individual mice, listed as R01 DOTA Cu-64
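Note: shoulder subcutaneous xenografts near 1 cm, tracer given via tail vein, 5-min static PET, ROI activity on decay-corrected images converted to %ID/g with tissue density taken as 1 g/mL.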

Compound: CC[C@H](C)[C@@H]1NC(=O)[C@@H](NC(=O)CNC(=O)CN2CCN(CC(=O)O)CCN(CC(=O)O)CCN(CC(=O)O)CC2)CSSC[C@@H]2NC(=O)[C@H](C)NC(=O)CNC(=O)[C@@H]3CCCN3C(=O)[C@@H]3CSSC[C@@H](C(=O)NCC(N)=O)NC(=O)[C@H](Cc4ccc(O)cc4)NC(=O)CNC(=O)[C@H](CC(N)=O)NC(=O)CNC(=O)[C@H](CCCNC(=N)N)NC(=O)[C@H](CSSC[C@H](NC(=O)[C@H](CCCNC(=N)N)NC(=O)[C@H](Cc4ccccc4)NC(=O)[C@H](CC(C)C)NC(=O)[C@H](CC(C)C)NC(=O)[C@H]([C@@H](C)O)NC(=O)CNC(=O)[C@H](CC(C)C)NC(=O)[C@H](CC(=O)O)NC(=O)[C@H]([C@@H](C)O)NC(=O)[C@H](CCCNC(=N)N)NC(=O)[C@H](CCSC)NC(=O)[C@H](CC(N)=O)NC(=O)[C@H](CC(C)C)NC1=O)C(=O)N[C@@H](CCCNC(=N)N)C(=O)N[C@@H](CCCNC(=N)N)C(=O)N[C@@H](CC(=O)O)C(=O)N[C@@H](CO)C(=O)N[C@@H](CC(=O)O)C(=O)N3)NC(=O)[C@H]([C@@H](C)CC)NC2=O [[^64Cu]DOTA-R01, metal not drawn]
- tissue uptake at 1 h ([1]; kidney, PET, 1 h p.i., average ± SD, n = 3): 30.3 ± 2.33 %ID/g
- tissue uptake at 1 h ([1]; kidney, microPET 1 hr, individual mice): 32.9 %ID/g
- tissue uptake at 2 h ([1]; kidney, individual mice): 34.3 %ID/g
- tissue uptake at 4 h ([1]; kidney, individual mice): 29.8 %ID/g
- tissue uptake at 24 h ([1]; kidney, individual mice): 11.5 %ID/g
- tissue uptake at 1 h ([1]; liver, PET, 1 h p.i., average ± SD, n = 3): 2.26 ± 0.11 %ID/g
- tissue uptake at 1 h ([1]; liver, microPET 1 hr, individual mice): 2.34 %ID/g
- tissue uptake at 2 h ([1]; liver, individual mice): 1.82 %ID/g
- tissue uptake at 4 h ([1]; liver, individual mice): 1.79 %ID/g
- tissue uptake at 24 h ([1]; liver, individual mice): 2.93 %ID/g
- tissue uptake at 1 h ([1]; muscle, PET, 1 h p.i., average ± SD, n = 3): 0.433 ± 0.008 %ID/g
- tissue uptake at 1 h ([1]; muscle, microPET 1 hr, individual mice): 0.427 %ID/g
- tissue uptake at 2 h ([1]; muscle, individual mice): 0.404 %ID/g
- tissue uptake at 4 h ([1]; muscle, individual mice): 0.399 %ID/g
- tissue uptake at 24 h ([1]; muscle, individual mice): 0.37 %ID/g
- tissue uptake at 1 h ([1]; tumor (BxPC3 xenograft), Tumor avb6(+), microPET 1 hr, individual mice, one line per mouse): 2.99 %ID/g
- tissue uptake at 2 h [1, 3]: 2.87 %ID/g
- tissue uptake at 4 h [1, 3]: 2.39 %ID/g
- tissue uptake at 24 h [1, 3]: 1.85 %ID/g
- tissue uptake at 1 h ([1]; tumor (BxPC3 xenograft, αvβ6 positive), Tumor, PET, 1 h p.i., αvβ6 (+), average ± SD, n = 3): 3.07 ± 0.17 %ID/g
- tissue to tissue ratio at 1 h ([1]; tumor / muscle, 100 uCi): 7.09 ± 0.27
- Tumor ([2]; PET, 1 h p.i., αvβ6 (+), average ± SD, n = 3): ~ 3 %ID g^−1
- Kidney ([2]; PET, 1 h p.i., average ± SD, n = 3): ~ 30 %ID g^−1
- Muscle ([2]; microPET 1 hr, individual mice, listed as Ro1 DOTA Cu-64): 0.4306 %ID/g
- Muscle [2, 4]: 0.407 %ID/g
- Tumor avb6(+) [2, 4]: 2.883 %ID/g
- Kidney [2, 5]: 29.77 %ID/g
- Muscle [2, 5]: 0.4024 %ID/g
- Muscle ([2]; microPET 24 hr, individual mice, listed as R01 DOTA Cu-64): 0.3725 %ID/g
